T1: KSHV SOX (alkaline exonuclease) (Kaposi's sarcoma-associated herpesvirus …, UniProt P88925 1-486)
T1 sequence: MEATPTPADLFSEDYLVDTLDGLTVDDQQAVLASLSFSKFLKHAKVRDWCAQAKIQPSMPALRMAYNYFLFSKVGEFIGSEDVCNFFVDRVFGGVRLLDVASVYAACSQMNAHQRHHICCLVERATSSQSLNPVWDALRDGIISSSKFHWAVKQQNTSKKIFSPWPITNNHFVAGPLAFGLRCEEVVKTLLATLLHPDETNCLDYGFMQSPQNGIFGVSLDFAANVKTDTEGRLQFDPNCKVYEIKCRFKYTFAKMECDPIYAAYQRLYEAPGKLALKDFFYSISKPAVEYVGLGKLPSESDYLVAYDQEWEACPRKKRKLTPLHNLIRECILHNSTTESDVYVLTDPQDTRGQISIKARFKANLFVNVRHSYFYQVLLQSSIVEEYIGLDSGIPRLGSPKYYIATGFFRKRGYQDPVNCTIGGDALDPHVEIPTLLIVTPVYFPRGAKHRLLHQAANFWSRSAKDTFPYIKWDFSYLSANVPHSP

B1: dsDNA-5'P (dsDNA)
DNA 1: GGGGATCCTCCCAGTCGACC
DNA 2: GGTCGACTAGGAGGATCCCC
modifications: 5' phosphate on strand 1
B2: dsRNA-5'P (dsRNA)
RNA 1: UGGUUUACAUGUUCCAAUAUU
RNA 2: AAUAUUGGAACAUGUAAACCA
modifications: 5' phosphate on strand 1

Biological target: T1, KSHV SOX (alkaline exonuclease)
Assay: fluorescence anisotropy

Question: Which Kd does the source give for B1 here?
Answer: 6 µM

Question: UGGUUUACAUGUUCCAAUAUU (ssRNA, 5' phosphate) [ssRNA-5'P] was tested. Which Kd did it give?
Answer: 87 µM

Question: B2 was tested. Which Kd did it give?
Answer: 95 µM

Reference: paper PMC3141240
